{"source": "patent US7285408B2", "about": "“Crystalline form of an n231 mutant catalytic domain of ADAM33 and methods of use thereof” (Schering Corporation, priority 2002, dated 2007)", "key": {"[1]": {"assay": "Storage stability of purified protein (N-terminal sequencing, mass spectrometry, enzymatic assay)", "format": "physicochemical", "conditions": "4° C.; expression induced with 0.5 mM CuSO4, purified as complex of pro and catalytic domains", "experimental": "The Ni-NTA column was washed with 15-20 CV of buffer C until a stable baseline was achieved, and the protein was eluted with 250 mM imidazole in buffer C. The eluted protein was concentrated to 5-15 mg/ml, and then applied to a SUPERDEX-75 gel filtration column equilibrated with buffer GF (25 mM HEPES, pH 7.5, 150 mM NaCl, 10% glycerol, 50 mM imidazole). Fractions corresponding to the monomer of ADAM33 were pooled, and diluted to 0.3 mg/ml, flash-frozen in liquid nitrogen, and stored at −80° C. […] When used for crystallography, the frozen protein was thawed on ice and concentrated to 10 mg/ml using Ultrafree®-15 Centrifugation Filter Device (Millipore, Bedford, Mass.). The thawed protein was immediately subjected to crystallization trials. Using this protocol a total of 1-9 mg of ADAM33 N231Q comprising the amino acid sequence of SEQ ID NO: 8 and SEQ ID NO: 36 (the C-Terminal Ser-Gly His6 Tag) was obtained from 1 liter of conditioned medium. 5 mM CaCl2 is preferably included throughout the purification process. It is also preferred that 5 mM CaCl2 is retained in the storage buffer.\nAfter designing an appropriate DNA construct, the expression of the ADAM33 catalytic domain in an eukaryotic cell line needed to be optimized. […] However, under these induction conditions, Cu^2+ readily binds to the C-terminal His6 Tag. […]"}, "[2]": {"assay": "Thermal denaturation monitored by circular dichroism (220 nm) as a function of temperature and CaCl2 concentration", "format": "physicochemical", "experimental": "The effect of CaCl2 on the stability of the ADAM33 N231Q catalytic domain as determined by thermal denaturation: The effect of the concentration of CaCl2 on the retention of the secondary structure of the ADAM33 N231Q catalytic domain was monitored by circular dichroism (λ220 nm) as a function of temperature. A parallel study was performed replacing the CaCl2 with NaCl to control for the effect of the corresponding increase in ionic strength. The ADAM33 N231Q catalytic domain was purified as described above and then diluted to 0.2 mg/ml. The sample was then dialyzed against 25 mM Hepes, pH 7.5, 5% glycerol overnight. The temperature dependent protein denaturation was performed using a JASCO 810 spectropolarimeter under the following conditions: • Protein concentration: 0.2 mg/ml (based on a BioRad Protein Assay) • Cell length: 0.1 cm • Monitor wavelength: 220 nm • Temperature slope: 2° C./min • Measurement range: 20-80° C.\nTherefore, greater than 10 μM CaCl2, and preferably between 0.3-100 mM CaCl2 should be included to maintain the stability of this protein."}}}
{"molecule": "wild type (WT) ADAM33: ADAM33 protein fragment with pre, pro and wild type catalytic domain and Ser-Gly-His6 Tag expressed in Drosophila S2 cells (SEQ ID NO: 2) (protein, Ser-Gly-His6 tag; homo sapiens) MKLCILLAVVAFVGLSLGRSPWPGVPLQGHIPGQPVTPHWVLDGQPWRTVSLEEPVSKPDMGLVALEAEGQELLLELEKNHRLLAPGYIETHYGPDGQPVVLAPNHTDHCHYQGRVRGFPDSWVVLCTCSGMSGLITLSRNASYYLRPWPPRGSKDFSTHEIFRMEQLLTWKGTCGHRDPGNKAGMTSLPGGPQSRGRREARRTRKYLELYIVADHTLFLTRHRNLNHTKQRLLEVANYVDQLLRTLDIQVALTGLEVWTERDRSRVTQDANATLWAFLQWRRGLWAQRPHDSAQLLTGRAFQGATVGLAPVEGMCRAESSGGVSTDHSELPIGAAATMAHEIGHSLGLSHDPDGCCVEAAAESGGCVMAAATGHPFPRVFSACSRRQLRAFFRKGGGACLSNAP", "values": [{"measurement": "stability of purified protein", "setting": "[1]", "value": "labile"}]}
{"molecule": "ADAM33 N231Q: modified human ADAM33 catalytic domain, Asn231 replaced by glutamine (SEQ ID NO: 8) with C-terminal Ser-Gly His6 Tag (protein, C-terminal Ser-Gly His6 tag; homo sapiens) EARRTRKYLELYIVADHTLFLTRHRNLQHTKQRLLEVANYVDQLLRTLDIQVALTGLEVWTERDRSRVTQDANATLWAFLQWRRGLWAQRPHDSAQLLTGRAFQGATVGLAPVEGMCRAESSGGVSTDHSELPIGAAATMAHEIGHSLGLSHDPDGCCVEAAAESGGCVMAAATGHPFPRVFSACSRRQLRAFFRKGGGACLSNAPSGHHHHHH", "values": [{"measurement": "ΔDenaturation Temp.", "setting": "[2]; CaCl2 0 mM", "value": 0.0, "unit": "°C"}, {"measurement": "Denaturation Temp.", "setting": "[2]; CaCl2 0 mM, 0.2 mg/ml protein, 25 mM Hepes pH 7.5, 5% glycerol", "value": 43.5, "unit": "°C"}, {"measurement": "Denaturation Temp.", "setting": "[2]; CaCl2 0.003 mM", "value": 50.6, "unit": "°C"}, {"measurement": "ΔDenaturation Temp.", "setting": "[2]; CaCl2 0.003 mM vs 0 mM", "value": 7.1, "unit": "°C"}, {"measurement": "Denaturation Temp.", "setting": "[2]; CaCl2 0.03 mM", "value": 52.9, "unit": "°C"}, {"measurement": "ΔDenaturation Temp.", "setting": "[2]; CaCl2 0.03 mM vs 0 mM", "value": 9.4, "unit": "°C"}, {"measurement": "Denaturation Temp.", "setting": "[2]; CaCl2 0.3 mM", "value": 53.9, "unit": "°C"}, {"measurement": "ΔDenaturation Temp.", "setting": "[2]; CaCl2 0.3 mM vs 0 mM", "value": 10.4, "unit": "°C"}, {"measurement": "Denaturation Temp.", "setting": "[2]; CaCl2 0.5 mM", "value": 56.9, "unit": "°C"}, {"measurement": "ΔDenaturation Temp.", "setting": "[2]; CaCl2 0.5 mM vs 0 mM", "value": 13.4, "unit": "°C"}, {"measurement": "Denaturation Temp.", "setting": "[2]; CaCl2 1.0 mM", "value": 57.9, "unit": "°C"}, {"measurement": "ΔDenaturation Temp.", "setting": "[2]; CaCl2 1.0 mM vs 0 mM", "value": 14.4, "unit": "°C"}, {"measurement": "Denaturation Temp.", "setting": "[2]; CaCl2 2.5 mM", "value": 60.6, "unit": "°C"}, {"measurement": "ΔDenaturation Temp.", "setting": "[2]; CaCl2 2.5 mM vs 0 mM", "value": 17.1, "unit": "°C"}, {"measurement": "Denaturation Temp.", "setting": "[2]; CaCl2 5.0 mM", "value": 61.5, "unit": "°C"}, {"measurement": "ΔDenaturation Temp.", "setting": "[2]; CaCl2 5.0 mM vs 0 mM", "value": 18.0, "unit": "°C"}, {"measurement": "Denaturation Temp.", "setting": "[2]; CaCl2 10.0 mM", "value": 63.3, "unit": "°C"}, {"measurement": "ΔDenaturation Temp.", "setting": "[2]; CaCl2 10.0 mM vs 0 mM", "value": 19.8, "unit": "°C"}, {"measurement": "Denaturation Temp.", "setting": "[2]; CaCl2 25.0 mM", "value": 64.6, "unit": "°C"}, {"measurement": "ΔDenaturation Temp.", "setting": "[2]; CaCl2 25.0 mM vs 0 mM", "value": 21.1, "unit": "°C"}, {"measurement": "Denaturation Temp.", "setting": "[2]; CaCl2 50.0 mM", "value": 65.6, "unit": "°C"}, {"measurement": "ΔDenaturation Temp.", "setting": "[2]; CaCl2 50.0 mM vs 0 mM", "value": 22.1, "unit": "°C"}, {"measurement": "Denaturation Temp.", "setting": "[2]; CaCl2 100.0 mM", "value": 65.2, "unit": "°C"}, {"measurement": "ΔDenaturation Temp.", "setting": "[2]; CaCl2 100.0 mM vs 0 mM", "value": 21.7, "unit": "°C"}, {"measurement": "stability in the presence of CaCl2 relative to NaCl", "setting": "[2]; equivalent ionic strength", "value": "significantly greater stability"}]}
